Assays:
FGFR1 = FGFR1 (UniProt P11362); assay: phosphorylation enrichment, bacterial display (enrichment ratio); higher = better substrate or ligand; peptides without Tyr show the background
c-Abl (mouse) = assay: as above
FGFR3 = FGFR3 (UniProt P22607); assay: as above
EPHB2 = EPHB2 (UniProt P29323); assay: as above
Fer (mouse) = assay: as above
c-Src = assay: as above
AncSZ = assay: as above
EPHB1 = EPHB1 (UniProt P54762); assay: as above
Hck = Hck (UniProt P08631); assay: as above
MERTK = MERTK (UniProt Q12866); assay: as above
Fyn = Fyn (UniProt P06241); assay: as above
Fes = Fes (UniProt P07332); assay: as above
Jak2 = Jak2 (UniProt O60674); assay: as above
SHP2-C SH2 = assay: SH2 binding enrichment of the phosphorylated peptide, bacterial display (enrichment ratio); higher = better substrate or ligand; peptides without Tyr show the background
Grb2 SH2 = Grb2 SH2 (UniProt P62993); assay: as above
c-Src SH2 = assay: as above
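Wherever SH2 binding enrichment of the phosphorylated peptide, bacterial display is given: peptide library displayed on the E. coli surface as eCPX fusions, selected cells deep-sequenced, score is each peptide's frequency after selection divided by its frequency in the input.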
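Wherever phosphorylation enrichment, bacterial display is given: 11-residue human phosphosite peptides and single-mutation variants displayed on the E. coli surface, counted by deep sequencing, each peptide's frequency after selection divided by its frequency in the unselected input library; frequency after pTyr selection over input frequency; kinase dosed for 20-30% of maximal phosphorylation in three min.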

FGFR3, sequence (P22607 whole entry, looked up): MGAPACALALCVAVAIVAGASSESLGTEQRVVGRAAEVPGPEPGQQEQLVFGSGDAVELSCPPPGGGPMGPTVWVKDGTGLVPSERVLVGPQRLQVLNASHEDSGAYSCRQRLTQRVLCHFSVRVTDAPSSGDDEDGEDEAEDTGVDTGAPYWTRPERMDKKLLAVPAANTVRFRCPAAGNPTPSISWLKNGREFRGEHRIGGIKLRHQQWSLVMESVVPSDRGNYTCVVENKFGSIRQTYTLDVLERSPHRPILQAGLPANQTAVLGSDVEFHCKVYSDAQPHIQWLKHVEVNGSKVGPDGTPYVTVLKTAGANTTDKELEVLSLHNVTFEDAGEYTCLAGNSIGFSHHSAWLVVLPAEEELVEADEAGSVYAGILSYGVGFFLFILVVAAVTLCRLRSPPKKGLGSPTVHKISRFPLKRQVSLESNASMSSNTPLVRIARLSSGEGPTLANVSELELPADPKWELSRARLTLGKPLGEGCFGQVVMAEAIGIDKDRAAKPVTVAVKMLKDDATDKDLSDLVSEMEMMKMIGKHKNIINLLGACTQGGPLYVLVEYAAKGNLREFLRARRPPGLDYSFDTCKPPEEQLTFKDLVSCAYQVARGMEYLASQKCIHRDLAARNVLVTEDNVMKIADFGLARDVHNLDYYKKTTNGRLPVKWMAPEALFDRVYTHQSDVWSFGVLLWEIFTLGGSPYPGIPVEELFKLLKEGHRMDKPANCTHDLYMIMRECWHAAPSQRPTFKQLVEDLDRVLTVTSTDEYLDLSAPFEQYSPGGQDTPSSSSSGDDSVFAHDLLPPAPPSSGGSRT
Fyn, sequence (P06241 whole entry, looked up): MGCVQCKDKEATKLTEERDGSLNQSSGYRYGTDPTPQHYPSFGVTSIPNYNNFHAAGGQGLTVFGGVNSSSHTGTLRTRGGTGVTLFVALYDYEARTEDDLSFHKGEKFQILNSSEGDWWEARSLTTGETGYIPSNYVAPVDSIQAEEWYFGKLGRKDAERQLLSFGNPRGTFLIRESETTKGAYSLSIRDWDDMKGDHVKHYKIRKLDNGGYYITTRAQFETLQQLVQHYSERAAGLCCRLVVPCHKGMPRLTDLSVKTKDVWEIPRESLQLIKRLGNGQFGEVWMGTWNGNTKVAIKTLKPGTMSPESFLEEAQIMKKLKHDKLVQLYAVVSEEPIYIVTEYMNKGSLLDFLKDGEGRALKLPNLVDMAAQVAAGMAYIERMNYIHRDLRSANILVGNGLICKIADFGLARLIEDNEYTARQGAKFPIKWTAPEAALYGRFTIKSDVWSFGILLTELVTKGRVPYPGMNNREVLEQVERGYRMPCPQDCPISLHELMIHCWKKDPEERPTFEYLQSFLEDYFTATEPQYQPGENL
Grb2 SH2, sequence (P62993 whole entry, looked up): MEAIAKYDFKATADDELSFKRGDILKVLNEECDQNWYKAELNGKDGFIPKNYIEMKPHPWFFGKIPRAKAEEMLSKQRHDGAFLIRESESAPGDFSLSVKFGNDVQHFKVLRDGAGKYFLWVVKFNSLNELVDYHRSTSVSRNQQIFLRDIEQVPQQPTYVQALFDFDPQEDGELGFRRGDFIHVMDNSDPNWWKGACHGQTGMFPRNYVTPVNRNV
Fes, sequence (P07332 whole entry, looked up): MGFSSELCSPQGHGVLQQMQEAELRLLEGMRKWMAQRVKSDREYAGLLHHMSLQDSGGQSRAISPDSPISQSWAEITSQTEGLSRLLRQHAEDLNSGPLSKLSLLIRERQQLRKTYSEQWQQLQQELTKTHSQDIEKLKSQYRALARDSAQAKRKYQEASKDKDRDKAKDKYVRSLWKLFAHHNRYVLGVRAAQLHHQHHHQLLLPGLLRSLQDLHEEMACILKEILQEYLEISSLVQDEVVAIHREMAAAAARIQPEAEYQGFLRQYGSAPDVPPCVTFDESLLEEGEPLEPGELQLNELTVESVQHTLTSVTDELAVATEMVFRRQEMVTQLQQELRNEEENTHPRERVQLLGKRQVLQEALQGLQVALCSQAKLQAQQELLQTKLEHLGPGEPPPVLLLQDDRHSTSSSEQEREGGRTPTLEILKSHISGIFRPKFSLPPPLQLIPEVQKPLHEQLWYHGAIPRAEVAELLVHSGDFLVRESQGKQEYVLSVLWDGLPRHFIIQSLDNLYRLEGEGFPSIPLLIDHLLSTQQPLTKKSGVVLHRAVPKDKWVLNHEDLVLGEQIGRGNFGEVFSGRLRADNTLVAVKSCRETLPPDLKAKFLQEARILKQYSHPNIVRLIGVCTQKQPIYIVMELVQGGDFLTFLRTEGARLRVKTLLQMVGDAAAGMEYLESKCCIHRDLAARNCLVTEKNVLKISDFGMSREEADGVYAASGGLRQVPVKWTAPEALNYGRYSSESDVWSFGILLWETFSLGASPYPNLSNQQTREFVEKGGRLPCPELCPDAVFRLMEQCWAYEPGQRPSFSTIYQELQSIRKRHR
Hck, sequence (P08631 whole entry, looked up): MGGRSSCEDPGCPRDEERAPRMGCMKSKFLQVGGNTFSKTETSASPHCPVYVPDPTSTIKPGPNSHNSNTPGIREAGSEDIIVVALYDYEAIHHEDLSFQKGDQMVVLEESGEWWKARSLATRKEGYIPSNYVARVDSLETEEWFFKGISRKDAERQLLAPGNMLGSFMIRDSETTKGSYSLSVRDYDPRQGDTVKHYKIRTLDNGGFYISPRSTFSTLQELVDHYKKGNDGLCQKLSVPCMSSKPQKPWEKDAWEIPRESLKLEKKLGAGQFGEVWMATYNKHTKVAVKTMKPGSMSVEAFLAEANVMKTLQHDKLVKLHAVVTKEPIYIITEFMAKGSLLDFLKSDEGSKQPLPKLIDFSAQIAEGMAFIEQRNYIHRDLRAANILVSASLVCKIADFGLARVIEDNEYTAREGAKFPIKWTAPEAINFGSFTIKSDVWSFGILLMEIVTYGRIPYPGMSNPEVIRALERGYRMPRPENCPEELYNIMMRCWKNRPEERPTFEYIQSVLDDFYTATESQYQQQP
MERTK, sequence (Q12866 whole entry, looked up): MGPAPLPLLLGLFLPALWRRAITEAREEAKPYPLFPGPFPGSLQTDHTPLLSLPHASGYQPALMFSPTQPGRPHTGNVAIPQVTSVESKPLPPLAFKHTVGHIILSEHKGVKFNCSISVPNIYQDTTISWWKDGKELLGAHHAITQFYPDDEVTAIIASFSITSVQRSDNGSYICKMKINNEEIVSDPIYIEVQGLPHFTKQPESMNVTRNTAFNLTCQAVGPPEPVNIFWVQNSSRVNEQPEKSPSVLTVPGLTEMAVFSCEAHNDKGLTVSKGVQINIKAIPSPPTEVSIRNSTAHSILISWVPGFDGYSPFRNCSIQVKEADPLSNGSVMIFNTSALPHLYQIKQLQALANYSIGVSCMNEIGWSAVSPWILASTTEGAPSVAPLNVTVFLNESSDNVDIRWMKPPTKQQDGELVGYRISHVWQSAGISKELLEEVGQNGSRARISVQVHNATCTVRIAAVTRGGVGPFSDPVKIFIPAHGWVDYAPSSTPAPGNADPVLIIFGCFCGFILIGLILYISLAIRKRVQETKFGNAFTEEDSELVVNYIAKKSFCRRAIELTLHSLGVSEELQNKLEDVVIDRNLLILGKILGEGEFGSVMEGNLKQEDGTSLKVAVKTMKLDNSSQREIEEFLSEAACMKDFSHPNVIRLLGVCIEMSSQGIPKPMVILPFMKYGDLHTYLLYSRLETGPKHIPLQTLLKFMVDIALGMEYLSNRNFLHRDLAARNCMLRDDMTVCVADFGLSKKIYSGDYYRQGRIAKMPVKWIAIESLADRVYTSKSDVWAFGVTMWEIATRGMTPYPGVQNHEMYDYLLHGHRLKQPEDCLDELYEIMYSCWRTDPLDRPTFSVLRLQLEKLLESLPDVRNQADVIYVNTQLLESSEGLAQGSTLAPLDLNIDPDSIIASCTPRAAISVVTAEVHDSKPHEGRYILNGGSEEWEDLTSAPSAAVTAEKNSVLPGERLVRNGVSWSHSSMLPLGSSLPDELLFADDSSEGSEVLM
FGFR1, sequence (P11362 whole entry, looked up): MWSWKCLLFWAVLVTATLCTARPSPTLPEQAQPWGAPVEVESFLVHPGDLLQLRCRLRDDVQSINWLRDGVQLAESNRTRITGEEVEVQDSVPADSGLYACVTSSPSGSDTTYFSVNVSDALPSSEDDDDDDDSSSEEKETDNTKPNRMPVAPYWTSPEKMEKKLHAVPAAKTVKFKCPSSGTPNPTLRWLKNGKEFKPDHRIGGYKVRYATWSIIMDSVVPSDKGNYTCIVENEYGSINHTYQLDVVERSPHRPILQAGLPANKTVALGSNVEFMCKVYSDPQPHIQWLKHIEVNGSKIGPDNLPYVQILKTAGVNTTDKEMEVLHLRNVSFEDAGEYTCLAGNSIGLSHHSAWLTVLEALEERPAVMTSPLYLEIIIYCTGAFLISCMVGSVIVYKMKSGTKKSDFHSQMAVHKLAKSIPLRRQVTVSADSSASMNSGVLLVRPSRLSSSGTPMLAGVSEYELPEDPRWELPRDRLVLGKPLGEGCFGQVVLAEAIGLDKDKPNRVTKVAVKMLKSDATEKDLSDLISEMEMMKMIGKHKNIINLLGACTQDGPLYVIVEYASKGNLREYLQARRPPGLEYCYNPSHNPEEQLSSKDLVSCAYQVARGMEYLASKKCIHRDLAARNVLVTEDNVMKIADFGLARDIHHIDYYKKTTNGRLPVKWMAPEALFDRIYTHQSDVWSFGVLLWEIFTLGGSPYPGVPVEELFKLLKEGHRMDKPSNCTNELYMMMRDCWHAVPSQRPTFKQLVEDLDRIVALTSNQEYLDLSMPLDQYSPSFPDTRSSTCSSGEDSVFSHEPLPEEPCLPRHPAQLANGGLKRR

Sequence	phosphorylation enrichment (FGFR1)	phosphorylation enrichment (c-Abl (mouse))	phosphorylation enrichment (FGFR3)	phosphorylation enrichment (EPHB2)	phosphorylation enrichment (Fer (mouse))	phosphorylation enrichment (c-Src)	phosphorylation enrichment (AncSZ)	phosphorylation enrichment (EPHB1)	phosphorylation enrichment (Hck)	phosphorylation enrichment (MERTK)	phosphorylation enrichment (Fyn)	phosphorylation enrichment (Fes)	phosphorylation enrichment (Jak2)	SH2 binding enrichment (SHP2-C SH2)	SH2 binding enrichment (Grb2 SH2)	SH2 binding enrichment (c-Src SH2)
SLIDMYSEVPD [OPA1_Y268_L272P]	0.892	0.619	0.895	0.679	0.422	0.747	1.27	0.48	0.594	0.604	0.595	1.03	1.24	0.7	0.675	0.545
YMRGMYFRMTD [PLA2G6_Y541_K545T]	0.592	0.771	0.908	0.566	0.481	0.427	1.21	0.63	0.578	0.773	0.434	1.16	1.41	1.83	0.959	1.2
VPVNGYQPVTA [ROR2_Y824_P828T]	0.375	0.516	0.535	0.414	0.336	0.309	0.492	0.392	0.348	0.392	0.541	0.535	0.494	0.635	0.846	0.6
QLLIEYPPEEV [ZZZ3_Y670_K669E]	0.659	1.03	0.833	0.933	0.671	0.44	1.36	0.788	0.534	0.622	0.618	1.31	1.27	0.679	1.04	0.569
AHLTEYLSTHY [UQCRC1_Y219_D215H]	0.475	0.475	0.585	0.396	0.371	0.453	0.716	0.462	0.517	0.464	0.402	0.639	0.647	0.724	0.845	0.511
FSKTQYNQVPS [CXADR_Y318_YF]	0.577	0.892	0.556	0.858	0.551	0.613	0.801	0.424	0.598	0.697	0.507	0.85	1.15	1.03	0.962	0.56
FQVRRYDCDCD [CRYGS_Y21_G18V]	0.557	0.788	0.758	0.592	0.497	0.622	1.19	0.583	0.498	0.553	0.563	1.32	1.32	0.854	0.921	0.891
RMQLPYDSTWE [PDGFRB_Y589_P584R]	0.779	0.913	0.963	0.704	0.434	0.996	1.23	0.76	0.764	0.447	0.851	1.33	1.17	0.747	0.445	0.91

— the supplement of paper PMC10065799, “High-throughput profiling of sequence recognition by tyrosine kinases and SH2 domains using bacterial peptide display” (eLife, 2023)
